According to PMC4537050 (2015):

T1: Human recombinant FGF8b (fibroblast growth factor-8b) (human)
T1 chain: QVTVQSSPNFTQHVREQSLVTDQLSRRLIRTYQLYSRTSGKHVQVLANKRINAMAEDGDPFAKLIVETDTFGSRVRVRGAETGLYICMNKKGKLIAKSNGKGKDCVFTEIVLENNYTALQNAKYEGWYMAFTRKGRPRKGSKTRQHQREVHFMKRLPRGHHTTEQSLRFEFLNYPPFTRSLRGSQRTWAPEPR


Molecular target: T1, Human recombinant FGF8b (fibroblast …)
Assay: SPR
Ac-ARGCA-NH2 [Ac-ARGCA-NH2] was tested, and the Kd was over 3 mM. Ac-ARACA-NH2 [Ac-ARACA-NH2] was tested, and the Kd was over 3 mM. For Ac-ARPCG-NH2 [Ac-ARPCG-NH2], the Kd was 1.9 mM. With H-ARPCA-NH2 [H-ARPCA-NH2, non-acetylated peptide] the Kd was 2.9 mM. Ac-ARPMA-NH2 [Ac-ARPMA-NH2] gave a Kd of over 3 mM. Work on Ac-APCRA-NH2 [Ac-APCRA-NH2, partially scrambled peptide] yielded a Kd of over 3 mM. Work on Ac-GRPCG-NH2 [Ac-GRPCG-NH2] yielded a Kd of over 3 mM.
